Measurements reported in the DeepSol protein solubility set.

Experiment: soluble on expression in E. coli; label from the status in PepcDB or PDB records

Sequence	soluble on expression in E. coli
MGSSHHHHHHSSGLVPRGSHMNAPIETDVLILGGGPVGMALALDLAHRQVGHLVVEQTDGTITHPRVGTIGPRSMELFRRWGVAKQIRTAGWPGDHPLDAAWVTRVGGHEVYRIPLGTADTRATPEHTPEPDAICPQHWLAPLLAEAVGERLRTRSRLDSFEQRDDHVRATITDLRTGATRAVHARYLVACDGASSPTRKALGIDAPPRHRTQVFRNILFRAPELRSLLGERAALFFFLMLSSSLRFPLRALDGRGLYRLTVGVDDASKSTMDSFELVRRAVAFDTEIEVLSDSEWHLTHRVADSFSAGRVFLTGDAAHTLSPSGGFGMNTGIGSAADLGWKLAATLRGWAGPGLLATYEEERRPVAITSLEEANVNLRRTMDRELPPGLHDDGPRGERIRAAVAEKLERSGARREFDAPGIHFGHTYRSSIVCGEPETEVATGGWRPSARPGARAPHAWLTPTTSTLDLFGRGFVLLSFGTTDGVEAVTRAFADRHVPLETVTCHAPEIHALYERAHVLVRPDGHVAWRGDHLPAELGGLVDKVRGAA	soluble
MGSSHHHHHHSSGLVPRGSHMSELLATYLLTEPGADTEKKAEQIATGLTVGSWTDLPLVKQEQMQKHKGRVIKVEEREGTAASEKQAVITIAYPEINFSQDIPALLTTVFGKLSLDGKIKLIDLHFSEAFKRALPGPKFGVYGIRKLLGEFERPLLMSIFKGVIGRDLSDIKEQLRQQALGGVDLIKDDEIFFETGLAPFETRIAEGKQILKETYEQTGHKTLYAVNLTGRTADLKDKARRAAELGADALLFNVFAYGLDVMQGLAEDPEIPVPIMAHPAVSGAFTSSPFYGFSHALLLGKLNRYCGADFSLFPSPYGSVALPRADALAIHEECVREDAFNQTFAVPSAGIHPGMVPLLMRDFGIDHIINAGGGVHGHPNGAQGGGRAFRAIIDAVLEAQPIDEKAEQCKDLKLALDKWGKAEAV	soluble
MGSSHHHHHHSSGLVPRGSHMVHAFPHGTTATPTAIAVPPSLRLPVIEAAFPRQLHPYWPKLQETTRTWLLEKRLMPADKVEEYADGLCYTDLMAGYYLGAPDEVLQAIADYSAWFFVWDDRHDRDIVHGRAGAWRRLRGLLHTALDSPGDHLHHEDTLVAGFADSVRRLYAFLPATWNARFARHFHTVIEAYDREFHNRTRGIVPGVEEYLELRRLTFAHWIWTDLLEPSSGCELPDAVRKHPAYRRAALLSQEFAAWYNDLCSLPKEIAGDEVHNLGISLITHHSLTLEEAIGEVRRRVEECITEFLAVERDALRFADELADGTVRGKELSGAVRANVGNMRNWFSSVYWFHHESGRYMVDSWDDRSTPPYVNNEAAGEK	soluble
MGSSHHHHHHSSGRENLYFQGMADQDQLKALRLRIDSLDEKLLELISERARCAQDVARVKTQTLGEGEAPVFYRPEREAWVLKHIMQLNKGPLDNEEVARLFREIMSSCLALEQPLKVAYLGPEGTFTQAAALKHFGNAVISTPMAAIDEVFREVAAGAVNFGVVPVENSTEGAVNHTLDSFLEHDMVICGEVELRIHHHLLVGETTKTDNITRIYSHAQSLAQCRKWLDSHYPSVERVAVSSNADAAKRVKSEWNSAAIAGDMAASLYDLSKLHEKIEDRPDNSTRFLIIGNQEVPPTGDDKTSIIVSMRNKPGALHELLVPFHNNGIDLTRIETRPSRSGKWTYVFFIDFVGHHKEPLIKDVLEKIGQEAVALKVLGSYPKAVL	soluble
MGSTKSRPLRDANGTPKFRHESIACVFRVHPQQGVDVLTVIRSRPPYADMSALPSGALETNEMLKDACLRHLSLSGVHPSMVSHIEQLDTRSAIDRDPYDRTIATAHLCLIPWDIDPSVTNGSFTPLVDLDELAFDHKNIIEQGLYRLRAKLSYSNIGFALAPRLFTISDLAKTYSHVLTYNVSPTNLQRILTRRNQLQPTTARAIGSGRPARLFTFTTDRLEITDPFATLKPTESRKCKS	not soluble
MGSVRKASAWLGLVDDNNDDERYYDDDYSEGPESGDAWVTDPRVKVASDVAEEKGRRIATVTPDSFRDARAIGELFRDGVPVIVNLTAMEGTDAKRVVDFAAGLIFGLRGSIERVSTRVFLLSPADTQVISGESAAHRSDGFFNQSLEHHHHHH	not soluble
MGTEFNGLFDEWAHTYDSFVQGEDIQYKEVFAHYEDILEDVVNKSFGNVLEFGVGTGNLTNKLLLAGRTVYGIEPSREMRMIAKEKLPKEFSITEGDFLSFEVPTSIDTIVSTYAFHHLTDDEKNVAIAKYSQLLNKGGKIVFADTIFADQDAYDKTVEAAKQRGFHQLANDLQTEYYTRIPVMQTIFENNGFHVTFTRLNHFVWVMEATKQLEHHHHHH	soluble
MGTVLCSCLLGDNAKVRLKLSKMLEEEASGFYPDVLPEGSVSICEVEMKGCRREFYADRRSEEIEIGTPVIVEADGGFDMGVVYSTGRIALRKLQLKGLVSEVEKLPAIMRRATEEEVREFTEIRKREPEIREACLKRIERHQLDMKLVDIDLRLDQQKLSVYYTATHRIDFRGLVRDLAGEFKARIQMVQITTREEARRTNAQGSCGCALCCSTWMQKIHSNPFAEKPQMPDSMNGDNFSFNTIGLCNRPKCCLGFSKTNGKNGNCHHGKVRQNGWPSVGTTFTVRDGNAVVEGVDQQKKSIWIRYVSTGQKRRISLDQYNNMAGKRQGGQALEHHHHHH	not soluble
MGTYKKEKSRIGREGANEKKPGNLRVKGENFYRNAKDVARVNMYRGGKAKYNAAGELVRAAEFQSSEVPKARIQPDRRWFNNTRVIAQPTLTQFREAMGQKLNDPYQVLLRRNKLPMSLLQENTEIPKVRVLESEPFENTFGPKSQRKRPKISFDSVAELAKESDEKQNAYEEKIEERILANPDESDDVMLAARDAIFSKGQSKRIWNELYKVIDSSDVLIQVLDARDPVGTRCGTVERYLRNEASHKHMILVLNKVDLVPTSVAAAWVKILAKEYPTIAFHASINNSFGKGSLIQILRQFASLHSDKKQISVGLIGFPNAGKSSIINTLRKKKVCNVAPIPGETKVWQYVALMKRIFLIDCPGIVPPSSNDSDAELLLKGVVRVENVSNPEAYIPTVLSRCKVKHLERTYEISGWNDSTEFLAKLAKKGGRLLKGGEPDEASVAKMVLNDFMRGKIPWFIGPKGLSSSNDEINSSQKVATQQTEGSDQDGEEAEEEWHGISDDGKADESESTKPVAEGSASESTDESAVDDNKNRS	not soluble
MGWKMQATVTEIGKHAIDDSEKMIILFGETATDTLKQHAVIQSFPEKDQVTLAEGDHLKIGDTNYTITKVGSFANSNLQSIAHSTLIFADAPTDEDDVIRNGVYLTPHQLPKITIGTTIDYLVNGA	soluble
MGYFSNAQRHAYESLLPRYGIPLTEEPVDLDSIFGRTAPGILEIGSGMGETTAEIARQHPEKDFIAIEVHAPGIGSLLGQIEKHRLTNLRIIPHDAKLVLQQMFTSESLDGIHIFFPDPWPKARHHKRRLIQPDFVSLLCDRLKPGGYLHIATDWEDYATHILHVLRSEERFVNTAVDYAARPAYRPLTKFEQRGMKLGHTIRDIIFTRTALEHHHHHH	soluble
MGYHGGTMRVLGRRIYWRWYGEVLLEGGVTLRMTGDVAKWLRPGDRVRLRTEFKKPVLGFDEYALEAVFPLWPPFAKTLEHVRESPFGGKAYRYRLKVREATYEGDYEAIAELEQFHYASEKEVVALWVCTQCQKTLPANARPLCDCGGEARLKEIRGSTPASRFLVLELAERLPFEPRILGYLRLDPPIPRMHRRTPEGVERDIRERIFPRDWFHPTYEGGADWQRALDRVNTAAARIARVVVHPDYRSEGFGALLVRVALEWAKERGAPEARREKHLVYTIAQMARYHPFFEKVGFRYLFDTASGRPVLFYPLTEEAEAHLERFLREDPYAKAHGGRLYKPRFGRVPGLPGPIRLRGVHKAYRSHLDLEGLSREVQEALLAFGVKARVVERAVLRGASLEIPPGSLVVLAGASGAGKTTLLRLLLGEAPDAGEVAVPPGRRVAYIPGEREVDLGEDPILEAVYRRLKDVGAAIEVLNRVGLSDAVLYRARPHELSTGQRERFRLALLLAERPDLLLIDEFAAHLDVPTARRVALGLGKLCREAGVTLVAATHRPEVVAALDPDLLVYVGYGGLTTVPRRGPRT	soluble
MHDALRAYIEKYASEKISDADFEEVKKAFTFKRYKKGQFLLQEGEVSKYTAFVLKGSMRQYSVDAKGTEHIIHFGIENWWVGDRESSTMLTPSNYNIDAIEDTEVLLTTSEDLQQLTAALPVIGKMVNTMNQRNFIASQKRIHDALSLTAEERYLELLKNHPDFLQRFPQTMLASYLGITAETYSRIRKKALK	not soluble
